T1: GST-VID (full length) (Bacillus subtilis, UniProt P37963 1-575)
T1 sequence (looked up): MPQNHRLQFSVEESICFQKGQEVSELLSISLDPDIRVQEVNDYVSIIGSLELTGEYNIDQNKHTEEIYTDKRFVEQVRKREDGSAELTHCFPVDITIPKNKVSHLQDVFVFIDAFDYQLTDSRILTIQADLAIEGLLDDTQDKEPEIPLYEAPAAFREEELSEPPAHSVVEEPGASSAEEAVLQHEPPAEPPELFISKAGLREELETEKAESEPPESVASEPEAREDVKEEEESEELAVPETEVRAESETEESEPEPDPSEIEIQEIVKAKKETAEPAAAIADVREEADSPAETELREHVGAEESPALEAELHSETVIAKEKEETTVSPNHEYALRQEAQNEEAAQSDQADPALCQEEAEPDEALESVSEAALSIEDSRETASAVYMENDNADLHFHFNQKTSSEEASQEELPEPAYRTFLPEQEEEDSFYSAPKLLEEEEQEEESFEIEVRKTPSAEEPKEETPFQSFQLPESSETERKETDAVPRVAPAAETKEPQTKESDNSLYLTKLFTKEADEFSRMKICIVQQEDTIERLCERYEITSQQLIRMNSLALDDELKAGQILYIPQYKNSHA

T2: His6-VID full length (Bacillus subtilis, UniProt P37963 1-575)
T2 sequence (looked up): T1 sequence (looked up)

B1: His6-VID(121-575) (domain or fragment, Bacillus subtilis, UniProt P37963 121-575, looked up)
chain: DSRILTIQADLAIEGLLDDTQDKEPEIPLYEAPAAFREEELSEPPAHSVVEEPGASSAEEAVLQHEPPAEPPELFISKAGLREELETEKAESEPPESVASEPEAREDVKEEEESEELAVPETEVRAESETEESEPEPDPSEIEIQEIVKAKKETAEPAAAIADVREEADSPAETELREHVGAEESPALEAELHSETVIAKEKEETTVSPNHEYALRQEAQNEEAAQSDQADPALCQEEAEPDEALESVSEAALSIEDSRETASAVYMENDNADLHFHFNQKTSSEEASQEELPEPAYRTFLPEQEEEDSFYSAPKLLEEEEQEEESFEIEVRKTPSAEEPKEETPFQSFQLPESSETERKETDAVPRVAPAAETKEPQTKESDNSLYLTKLFTKEADEFSRMKICIVQQEDTIERLCERYEITSQQLIRMNSLALDDELKAGQILYIPQYKNSHA
B2: His6-VID(121-521) (domain or fragment, Bacillus subtilis, UniProt P37963 121-521, looked up)
chain: DSRILTIQADLAIEGLLDDTQDKEPEIPLYEAPAAFREEELSEPPAHSVVEEPGASSAEEAVLQHEPPAEPPELFISKAGLREELETEKAESEPPESVASEPEAREDVKEEEESEELAVPETEVRAESETEESEPEPDPSEIEIQEIVKAKKETAEPAAAIADVREEADSPAETELREHVGAEESPALEAELHSETVIAKEKEETTVSPNHEYALRQEAQNEEAAQSDQADPALCQEEAEPDEALESVSEAALSIEDSRETASAVYMENDNADLHFHFNQKTSSEEASQEELPEPAYRTFLPEQEEEDSFYSAPKLLEEEEQEEESFEIEVRKTPSAEEPKEETPFQSFQLPESSETERKETDAVPRVAPAAETKEPQTKESDNSLYLTKLFTKEADEFSR
B3: His6-IVA (SpoIVA) (natural protein, Bacillus subtilis, UniProt P35149 1-492, looked up)
chain: MEKVDIFKDIAERTGGDIYLGVVGAVRTGKSTFIKKFMELVVLPNISNEADRARAQDELPQSAAGKTIMTTEPKFVPNQAMSVHVSDGLDVNIRLVDCVGYTVPGAKGYEDENGPRMINTPWYEEPIPFHEAAEIGTRKVIQEHSTIGVVITTDGTIGDIARSDYIEAEERVIEELKEVGKPFIMVINSVRPYHPETEAMRQDLSEKYDIPVLAMSVESMRESDVLSVLREALYEFPVLEVNVNLPSWVMVLKENHWLRESYQESVKETVKDIKRLRDVDRVVGQFSEFEFIESAGLAGIELGQGVAEIDLYAPDHLYDQILKEVVGVEIRGRDHLLELMQDFAHAKTEYDQVSDALKMVKQTGYGIAAPALADMSLDEPEIIRQGSRFGVRLKAVAPSIHMIKVDVESEFAPIIGTEKQSEELVRYLMQDFEDDPLSIWNSDIFGRSLSSIVREGIQAKLSLMPENARYKLKETLERIINEGSGGLIAIIL
B4: GST-VID L201-A575 fragment (domain or fragment, Bacillus subtilis, UniProt P37963 201-575, looked up)
chain: LREELETEKAESEPPESVASEPEAREDVKEEEESEELAVPETEVRAESETEESEPEPDPSEIEIQEIVKAKKETAEPAAAIADVREEADSPAETELREHVGAEESPALEAELHSETVIAKEKEETTVSPNHEYALRQEAQNEEAAQSDQADPALCQEEAEPDEALESVSEAALSIEDSRETASAVYMENDNADLHFHFNQKTSSEEASQEELPEPAYRTFLPEQEEEDSFYSAPKLLEEEEQEEESFEIEVRKTPSAEEPKEETPFQSFQLPESSETERKETDAVPRVAPAAETKEPQTKESDNSLYLTKLFTKEADEFSRMKICIVQQEDTIERLCERYEITSQQLIRMNSLALDDELKAGQILYIPQYKNSHA

Key:
His6-IVA (SpoIVA) [1] = target: B3; test: far-Western, overlay or dot blot
GST-VID (full length) = target: T1, GST-VID (full length); test: pull-down
His6-VID full length = target: T2, His6-VID full length; test: far-Western, overlay or dot blot
His6-IVA (SpoIVA) [2] = target: B3; test: pull-down

Binder: B1
- binding result (His6-IVA (SpoIVA) [1]): binds

Binder: B2
- binding result (His6-IVA (SpoIVA) [1]): binds

Binder: B3
- binding result (GST-VID (full length)): binds
- binding result (His6-VID full length): binds

Binder: B4
- binding result (His6-IVA (SpoIVA) [2]): binds
